The text below walks through data of PMC8191301 (The Journal of Biological Chemistry, 2021).

No end group written: not given here.

hPCNA, sequence (P12004 whole entry): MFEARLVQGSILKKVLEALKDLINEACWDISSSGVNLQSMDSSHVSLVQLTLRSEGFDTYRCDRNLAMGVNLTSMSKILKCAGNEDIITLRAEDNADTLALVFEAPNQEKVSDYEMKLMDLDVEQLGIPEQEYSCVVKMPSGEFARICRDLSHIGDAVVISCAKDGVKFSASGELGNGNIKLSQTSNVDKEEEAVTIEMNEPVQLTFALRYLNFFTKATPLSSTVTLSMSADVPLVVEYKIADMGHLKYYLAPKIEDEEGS

One assay deals with T1, human Proliferating Cell Nuclear Antigen (hPCNA) (human, UniProt P12004). As to the kind of experiment: SPR.
T1 sequence (P12004 1-259): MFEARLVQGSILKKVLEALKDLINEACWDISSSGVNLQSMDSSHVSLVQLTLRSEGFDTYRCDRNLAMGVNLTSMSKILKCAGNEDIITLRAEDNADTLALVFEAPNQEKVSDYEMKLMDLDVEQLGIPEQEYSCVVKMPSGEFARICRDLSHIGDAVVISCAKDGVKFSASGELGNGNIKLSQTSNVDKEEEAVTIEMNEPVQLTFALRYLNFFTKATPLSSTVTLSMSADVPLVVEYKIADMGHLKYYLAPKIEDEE
Conditions: not given
In turn, KRRQTRITEYFHSKR-NH2 (designed binder) [p21μ–RD2] had a Kd of 1.12 nM.
On the same count and under the same terms, the value for KRRQTSMTDHYHSKR-NH2 [p21μ–F150H] was 159 nM.
Consider KRRQRSMTDFYHSKR-NH2 [p21μ–T145R], for which the “fold decrease in affinity relative to p21μ” value was 7 fold.
The molecule KRRQTSMTDYFHSKR-NH2 [p21μ–FY150/151YF] displayed a Kd of 2.18 nM.
Still for that read-out and setting: the value for KRRQRRMTDFYHSKR-NH2 [p21μ–TS145/146RR] was 1.83 nM.
Regarding KRRQTSMEDFYHSKR-NH2 [p21μ–T148E], the “fold lower affinity than p21μ” value is roughly 6 fold.
As to KRRQKSMTDFYHSKR-NH2 [p21μ–T145K], the “fold decrease in affinity relative to p21μ” value worked out at 8 fold.
Take KRRDTSMTDFYHSKR-NH2 [p21μ–Q144D]: the Kd was 714 nM.
In the case of KRRQTSMEEFYHSKR-NH2 [p21μ–TD148/149EE], the “fold lower affinity than p21μ” value is 4 fold.
Turning to KRRNTSMTDFYHSKR-NH2 [p21μ–Q144N], the Kd was 772 nM.
KRRQTSITDFYHSKR-NH2 [p21μ–M147I] showed a Kd of 11.1 nM.
The same measure, in the same setting: then KRRQKRMTDFYHSKR-NH2 [p21μ–TS145/146KR], with 37 nM.
Regarding KRRQTSMDEFYHSKR-NH2 [p21μ–TD148/149DE], the “fold lower affinity than p21μ” value was found to be 28 fold.
For the molecule KRRQRKMTDFYHSKR-NH2 [p21μ–TS145/146RK], the Kd was determined as 17.3 nM.

The next assay concerns the target hPCNA (Homo sapiens, UniProt P12004).
Test: not given
The conditions noted are these: isothermal calorimetry; ref [22]; cited from earlier work. (ITC needs no label: the signal is the heat of the interaction.)
“Tyr151Phe^P8–modified p21 peptide: literature p21 (residues 139–160) peptide with Tyr151Phe modification (GRKRRQTSMTDFFHSKRRLIFS; UniProt P38936 139-160, looked up, variant Y151F) [reference compound]”: the “fold decrease in binding affinity compared with the analogous native peptide (residues 139–160)” value was 3 fold.

Still in this assay, the particulars now being: p21 protein binding hPCNA; ref [13], [14], [15]; cited from earlier work.
“p21: cell-cycle regulator protein, highest affinity hPCNA-interacting protein known”: the Kd was 2.5 to 90 nM.

For another assay, the target named is T1, human Proliferating Cell Nuclear …. Nature of the assay: SPR.
Conditions: not given
The source holds these as a separate data set.
KRRMQTLESFFHSKR-NH2 [p21μ–pol η] showed an equilibrium dissociation constant (Kd) of 2540 nM.
The same measure, in the same setting: the value for KRRQRRVTDFFHSKR-NH2 [p21μ–Cdt1] was 8.76 nM; that for KRRQKKITDYFHSKR-NH2 [p21μ–Pogo] was 8.82 nM.

By Kd is commonly meant the concentration at which binding is half-saturated.
